The results in this text go back to patent publication US20090282582A1, “ENVIRONMENTAL STRESS RESPONSIVE PROMOTER AND METHOD OF TISSUE-SPECIFIC GENE EXPRESSION USING THE SAME” (RIKEN, priority 2006, published 2009).

For data set [1], the system named is Arabidopsis thaliana (columbia ecotype) plant body. The experiment in a line: full-length cDNA microarray analysis of gene expression levels after environmental stress application. The note with it: in vivo. How it is done: In this example, the gene expression levels at the time of application of various types of environmental stresses were analyzed using microarrays. Specifically, the microarrays described in Seki et al., “Monitoring the expression profiles of 7000 Arabidopsis genes under drought, cold, and high-salinity stresses using a full-length cDNA microarray,” Plant J. 31: 279-292, 2002, were used, and analysis was carried out in accordance with the method similar to the method described therein. Various types of environmental stresses were applied to a plant body under the following conditions. Specifically, low-temperature stress application was carried out by introducing a plate containing a plant body into a low-temperature chamber (4° C.). Dehydration stress application was carried out by capturing the plant body with forceps while refraining from damaging the plant body, roughly removing moisture from the plant body on a Kim Towel, placing the plant body on another plate, placing the plate in a clean bench while leaving the lid open, letting it stand for 2 hours, and then closing the lid. Salt stress application was carried out by dispensing a mixture of MS medium (containing 1% sucrose, 0.1% agar, and 1 mM luciferin) with 250 mM NaCl to the roots of the plant bodies (200 μl per plant body) using a Pipetman. ABA stress application was carried out by dispensing a mixture of MS medium (containing 1% sucrose, 0.1% agar, and 1 mM luciferin) with 100 μM ABA to the roots of the plant bodies (200 μl per plant body) using a Pipetman. As a plant body to which environmental stress is to be applied, Arabidopsis thaliana (columbia ecotype), which had been cultivated on a germination medium containing Murashige and Skoog Salt, 3% sucrose, and […] for 3 weeks, was used. Cultivation conditions were determined so as to maintain the temperature in the chamber at 22° C. with a 16-hour light period and an 8-hour dark period. Total RNA was extracted from plant bodies after environmental stress application or from plant bodies to which no environmental stress had been applied using the TRIZOL Reagent (Life Technologies), and mRNA was extracted using the mRNA isolation kit (Militenyi Biotec Auburn). In accordance with the method described in the above article, mRNA samples were reversely transcribed in the presence of Cy3 dUTP or Cy5 dUTP (Amersham Pharmacia). Microarray analysis was carried out using cDNAs obtained via reverse transcription. Data obtained via microarray analysis were analyzed using the Quantarray Version 2.0 (GSI Lumonics).

In data set [2] the test system is transgenic Arabidopsis thaliana plant body (luciferase reporter gene). The experiment in a line: luciferase assay of promoter::LUC transgenic plants after environmental stress application. The conditions noted are these: for Tissue allowing specific induction: summary over stress types. The class given is in vivo. As for the experimental part: Specifically, promoter regions were isolated from these genes, transgenic plants in which luciferase reporter genes were to be expressed under the control of such promoters were prepared, and tissue specificity of the promoters was inspected via luciferase assay.
In this example, DNA fragments containing promoter regions of the genes identified in Example 1 were recovered via PCR.
The nucleotide sequences of the amplified DNA fragments were determined in accordance with a conventional technique to confirm that mutagenesis, such as substitution or deletion, was not introduced thereinto. After the absence of mutagenesis was confirmed, the recovered DNA fragments were introduced into the vector for promoter analysis (i.e., a vector prepared by introducing the Gateway recombinant sequence (tradename: Gateway Vector Conversion System, Invitrogen) and the luciferase reporter gene into the pGreen vector (Plant Molecular Biology 42: 819-832, 2000)) using the Gateway recombination system to construct a recombinant vector.
The recombinant vector prepared in (1) above was introduced into a plant via Agrobacterium infection. When a gene is introduced via Agrobacterium infection, a process of infecting a plant with Agrobacterium containing a plasmid comprising the target gene construct is necessary. This process was carried out via vacuum infiltration. Specifically, a plant body of Arabidopsis thaliana that had been grown in soil comprising vermiculite and an equivalent amount of pearlite was soaked in a culture solution of Agrobacterium containing the recombinant vector prepared in (1). The resultant was placed in a desiccator, suctioned with a vacuum pump to 65 to 70 mmHg, and then allowed to stand at room temperature for 5 to 10 minutes. The pot was transferred onto a tray, covered with a wrap, and kept moistened. The wrap was removed on the following day, the plant was allowed to grow in that state, and seeds were then harvested.
Subsequently, seeds were sown on MS agar medium to which antibiotic hygromycin has been added in order to select an individual having the recombinant vector prepared in (1). Arabidopsis thaliana that had been grown in this medium was transferred to a pot and allowed to grow therein. Thus, seeds of transgenic plants to which the recombinant vector prepared in (1) has been introduced were obtained.
The seeds of the transgenic plant lineage prepared in (2) were sowed on MS agar medium. The plant body 10 days after sowing was used for luciferase assay.
At the outset, 1 mM luciferin (containing 0.01% Triton-X) was sprayed over the entire plant body 5 times. After the plant body was allowed to stand in the dark for 5 minutes, luciferase luminescence was assayed using ARGUS (assay after treatment for 0 hours). Subsequently, various types of environmental stresses were applied (see below). Low-temperature stress application was carried out by introducing a plate containing a plant body into a low-temperature chamber (4° C.). Dehydration stress application was carried out by capturing the plant body with forceps while refraining from damaging the plant body, roughly removing moisture from the plant body on a Kim Towel, placing the plant body on another plate, placing the plate in a clean bench while leaving the lid open, letting it stand for 2 hours, and then closing the lid. Salt stress application was carried out by dispensing a mixture of MS medium (containing 1% sucrose, 0.1% agar, and 1 mM luciferin) with 250 mM NaCl to the roots of the plant bodies (200 μl per plant body) using a Pipetman. ABA stress application was carried out by dispensing a mixture of MS medium (containing 1% sucrose, 0.1% agar, and 1 mM luciferin) with 100 μM ABA to the roots of the plant bodies (200 μl per plant body) using a Pipetman.
Luciferase luminescence was assayed 2, 5, and 10 hours after the above various types of environmental stresses had been applied using the ARGUS system (Hamamatsu Photonics). […]

As to “Promoter of RAFL05-20-M16: environmental stress responsive promoter DNA, SEQ ID NO: 3, upstream of At2g46680 (ATHB7 transcription factor)”, in data set [1], the “Environmental stress type to which the promoter responds” value was “Dehydration and salt”. Further, the “Tissue in which specific induction of expression is realized” value (shortened to “Tissue in which specific induction”) in data set [2] (ABA stress (100 μM ABA)) is “Root tissue”; in data set [2] (ABA stress (100 μM ABA), listed as promoter of RAFL05-20-M16) it was “root tissue”; in data set [2] (Dehydration stress) it was “Root tissue”; in data set [2] (Dehydration stress, listed as promoter of RAFL05-20-M16) it was “root tissue”. For the same molecule, the “time after stress application at which activity to induce gene expression is exhibited” value is recorded as “about 2 hours” in data set [2] (ABA stress, root tissue) and “about 10 hours” in data set [2] (Dehydration stress). The “Tissue allowing specific induction” value in data set [2] is “Stem and leaf tissue and root tissue”.

B1: Promoter of RAFL05-17-B13: environmental stress responsive promoter DNA, SEQ ID NO: 1, upstream of At1g01470 (LEA protein) (nucleic acid, listed as Arabidopsis thaliana)
DNA: CCGCCAACTACCAACACCGACATATGTGCTTTCGGCAGTTTTGATATCATTCCAAAATTTCAATTATTATTTATCAAATTTATTTTCTTGGTAAAAGTTTAATTAATTTCAATTATTTGAATGTCTTAATTCACTGATTACAAATTATATATGTAATATATACATAACAATTTCGTTCGTGGAGTGTTATTATACTCCTTAAGCGAATCTGTATATTTTAAATAAAATTTTGATTTATGCACACGTACATGTTCAATTGAAACGTTTTCCCTAACTATAGATGCCAATAAATAATAAGTTGATTTTTAAAATGTACAAAACAAAAGGTACCGTTTTGTAAAATTTTGCAACCAAAAAGTACAATCGGCCGTTGAAAATCGTGGAACCAAACACTAATTAAAGAGAAGTGTGAATATAATCTAGTGTTTGCGGATTTATATTATAAAATTTGTGTATCACTAAAATGTCAAAGCATGCTTTGACTGGTCAATAAGTCAAATTAACTAACAAACCATGCGAGGCGTAGGTTTGACTTCTTAACATAAATGCTGACTCAGTTTTTCCATTCCGCAGCTGTCGACTAATTGGACACGCTTCTTCCAATCCCTTTCCACTAATCATCCATCAACACGTGACATGCCTACAGTGCACGACTTCACAGTGATCATGTCAAAGTTTTGTTTTTAAGAGAAGAAGATTCACGACTTCACAGTGATCATAGTCCAGTTACAAATTTGAATGGGCTTATGGCCTGTGGCCCATTTAAGTTTGACCTTAATATCCATCAGAAACCCATACCAATACGGGTCATAAGTGCATTGTCCATATAGTGTACCGCAATGCATGGGAGTACTACTACATTCCACCGACGTGCATATGGGGGGACATGGTCGGTCCATTAATCCCTTGCGCATCTTATTCCTTACGCGAATACTTTTCCCTCTTTTAGTTTTGTATAATACTTTCCATTTTTTTGGTATTAAATTTATCGTGTGACTATCTAAAAAGGTATTTAATTATCTAGTTTAGCTATAACTGCAAACAAAATATCTATTTTCATGAATGATATATTTTTGAAATAAAATATTGTTGTCATGTAACGAAAAAATCAAAAATCAAGCAGAAGACACGTATAACCCACGCTTTCACTCTCACTCGTGGAAAACCCTCACACGTACACAAACCATTATAAAATTTAATCCATTTACATCGACCGACTTCATAAGAACATCGTAATCCCATCCGTTTATATATATATTCCAAGTTAAACTTCATATCATACACACAAACCTAAAACACCGAAACAAAAACAAAGAGATTTAAACAAGAAGAGTTATT
B1: the “Environmental stress type to which the promoter responds” value in data set [1] is “Dehydration and salt”. The “Tissue in which specific induction” value in data set [2] (ABA stress (100 μM ABA)) is “Stem and leaf tissue (weak)”; in data set [2] (ABA stress (100 μM ABA), listed as promoter of RAFL05-17-B13), “weak gene expression in stem and leaf tissue”; in data set [2] (Dehydration stress) it was “Stem and leaf tissue and root tissue”; in data set [2] (Dehydration stress, listed as promoter of RAFL05-17-B13) it was “stem and leaf tissue and root tissue”; in data set [2] (Low temperature stress (4° C.)), “Stem and leaf tissue”; in data set [2] (Low temperature stress (4° C.), listed as promoter of RAFL05-17-B13), “stem and leaf tissue”. Moreover, the “Tissue in which specific induction” value in data set [2] (Salt stress (250 mM NaCl)) was “Stem and leaf tissue”; in data set [2] (Salt stress (250 mM NaCl), listed as promoter of RAFL05-17-B13), “stem and leaf tissue”. For the same molecule, the “Tissue allowing specific induction” value in data set [2] was “Stem and leaf tissue and root tissue”.
